Drawing on a protein production outcome set (Wang et al. 2014), this text covers protein production for 15 sequences.
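Further: failed if final PepcDB status was selected cloned or expressed and not failed if soluble or beyond.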

This data set is described as follows: label from the status in PepcDB records.
For the sequence “MVQHHNLYELSPMDTGWTICVMVLRINKKFLNPNAFELRFVLDDEWDTQIEATIRPRFSPFYFDRIEKNQWKTISTFLVRPNCEPIRTTPHEFRILFMDHTIITSSTS”, the protein production entry is “failed”. “MVQNLSREQYGFVIWVVGNNSIPEEIRSLTTFLSWENLGTCLLLDPNAHVGSLCCSHRRVLLVEEFLGSYLSWGILDFDLFVQSNALNGGVIDMLRRFGVEVHISQPPTKTKKRSNANRKGFPDIELGKAMHSRALERNPSPMLLISSDSRLHTDVSHITSLAFEIILFHTKKAPKDLKDLATKRVLWFDGVSKLTEVRI”: the protein production result is listed as “failed”. Turning to “MVQSLAKQVIHQAVEVNAQDIYIIPKGDCYELYMRIDDERRFIDVFEFNRMASLISHFKFVAGMNVGEKRRSQLGSCDYELSEGRLVSLRLSSVGDYRGQESLVIRILY”, the protein production result is given as “failed”. On to “MVQVPPPPPTGFADHASAAEDREAGDGPAPSIAEGLSAALFQSVVEALPVGTALLRDGVIVHANATLAGQIGETIDTLIGSPLTSYLTPADALAVQKVVEGAIALHGGVPVRRIAHIRHISGSERVYSLRFSPLDNGPHPLLVVITRDMTAQVAAENALRAAEGKYRAIFENAVEGIYQSTPDGTYLDVNPALARIYGYASPAELIAHFTDIASQLYVDGTKRGEFQRLMRETGEVRDFTAEVWRCDGHTIWITENARCVRGPDNEVLYYEGTVEDITAQRQSQETMRLLGKVFTSIAEGIVLLERDLTVRTVNPAFEAMTGLLRQDMEGRPARLFASGLHENDFLATVAAEVDRAGLWRGEIWGERREGPPYSGEMTVTAVRTRAGETTHYVAAITDITKRKRDEEHIRFQANFDMLTHLPNRHLIMDRLEQAMHQAQRTGRQVCVMFLDLDRFKQINDSYGHSAGDEVLKLTARRLRNCVRISDSVGRLGGDEFIVILSNVEDQHAGAYIAEKILYSLSEPFPIGGTEVFCIPSVGITYFPDHGETAPDLLRNADVAMYHAKQGGERRYAIFTPDMARRSLALLTMESDLRHALARDEFELHFQPKVRADLTLIGAEALIRWRHPEKGLINPGDFIPLAEESGLILPIGRWTLREACDRVMSWRAEGLTIPSVSVNVSPRQFQDQTLVETVRQILVETGLEPEALDLEITETVMTGDVEHAVGTLRALKDLGVTLSIDDFGTGYSSLNYLKTFPIDTLKIDQTFVRDVLHSGKDAAIVSTIIALARNLGFSVVAEGVEEIEQAEFLGSRDCQNFQGFLYSRPLPPAEFTTFLRTAKLETATPPDLVPSIAPGP”, for which the protein production result was “failed”.

Regarding “MVRANKRNEALRIESALLNKIAMLGTEKTAEAVGVDKSQISRWKRDWIPKFSMLLAVLEWGVVDDDMARLARQVAAILTNKKRPAATERSEQIQMEF”, the protein production result is “not failed”.

On to “MVRGDDQLNGLQGGKRALDILCVATERTVSAFAYEEIGETSTEGDKRRERLRRLRRLINYSLSTTMNSSLSKRLKIDECKNQDPEQNPNRVASSPSSCHLESKRPQKVVSNKPVRNRKPVIVTDEDRTPTEWLIDVMREVNGMDAKLIFVKVLPNSDVDELQTRLMMPWKQILDMDFLNEEELEKIDRHHKKISASDKGADVIVVNSKGLQRKLKLKRWDMTSTSNYVLGLGWNKVVTDNILQRGTRLRIWSFHSPDMLFFAFVLSDPDPAPTECLNLLAKLCEETTCLEALQEANRMSSLVSDTELDLELRL”, for which the protein production entry is listed as “failed”.

For “MVRRRQTSETGLLRQLPLALLIWGLFSLMMWVPAVYALTLNDHPTSRSFFYAGILGLVVVTTISLARAGRPSRHGLLGQLAVLLSTFAVLPLFLAVPFHDALKTTSFLNAYFEMVSAITTTGAEMFPDPGRLSAPLHLWRAQVGWLGGLVMWIAASAILAPLSLGGFEVTAQGQPGRVLVGQGESVDPRGRLLRVAATLAPVYAGLTLVVAILLLAAGDSGLVAICHAMSVMATSGISPVGGLSGGASGLTGEAILFLFMFFALSRLTFSSDTAMRGHARLDQDPEFRIGLLILLGVPALLFLRHWSGAIDIASGENLTLALRALWGSLFTVMSFLSTTGFESTDWAEARQWSGLGTPGMILLGLSVIGGGVATTAGGVKLLRVYALYLNGTRELQRLVHPSSVSSATGRNRRIQRGGAFIAWVFFMLFAISLAAIALALAAAGSDFETAMVLSIATLSTTGPLIEIGAQEPIRLIEMPAAAKLILSGAMIIGRLETLAFIALITPALWRN”, the protein production result is on record as “failed”. In the case of “MVRVRFAPSPTGFLHVGGARTALFNFLFARKEKGKFILRIEDTDLERSEREYEEKLMESLRWLGLLWDEGPDVGGDHGPYRQSERVEIYREHAERLVKEGKAYYVYAYPEEIEEMREKLLSEGKAPHYSQEMFEKFDTPERRREYEEKGLRPAVFFKMPRKDYVLNDVVKGEVVFKTGAIGDFVIMRSNGLPTYNFACVVDDMLMEITHVIRGDDHLSNTLRQLALYEAFEKAPPVFAHVSTILGPDGKKLSKRHGATSVEAFRDMGYLPEALVNYLALLGWSHPEGKELLTLEELISSFSLDRLSPNPAIFDPQKLKWMNGYYLRNMPIEKLAELAKPFFEKAGIKIIDEEYFKKVLEITKERVEVLSEFPEESRFFFEDPAPVEIPEEMKEVFSQLKEELQNVRWTMEEITPVFKKVLKQHGVKPKEFYMTLRRVLTGREEGPELVNIIPLLGKEIFLRRIERSLGG”, the protein production entry is “not failed”.

With “MVSKECCRNEIRAAIRQLSDRCLYSAAKWAGEQLVGIEQDPSNFTPANTRFQRGSSSIRRRFSTNESISTPLPSVGFSQAATPLPEEDEAIDGDIYLLAKSYFDCREYRRASHMLRDQVSKKSLFLRYYALYLAGEKRKEEEMIELEGPLGKSDAINRELVSLERDLSALRRTGAIDSFGLYLYGVVLKEKGNESLARASLVESVNSYPWNWSAWSELQSLCTSIEILNSLNLNNHWMKEFFLGNAYQELRMHTESLAKYEYLQGIFSFSNYIQAQTAKAQYSLREFDQVEIMFEELLRNDPYRVEDMDLYSNVLYAKEACAALSYLAHKVFLTDKYRPESCCIIGNYYSLKGQHEKAVMYFRRALKLNKKYLSAWTLMGHEYVEMKNTPAAIDAYRRAVDINPTDYRAWYGLGQAYEMMGMPFYALHYFRKSIFFLPNDSRLWIAMAKCYQTEQLYMLEEAIKCYKRAVNCTDTEGIALNQLAKLHQKLGRNEEAAYYFEKDLERMDAEGLEGPNMFEALVFLATHFKNHKKFEEAEVYCTRLLDYSGPEKEKAKSLLRGIRMAQTGFPSMDLEHFPI”, the protein production entry is “failed”.

Turning to “MVSLPRLASLLTTRLATLKPALKPATHLASLGAQVIAELVPGIRMSPNRRRILPANMGAGFIGAEIAMWWALSPSLLPKPWWVTAANLAVLQAVGHAAATGIHSILPRTNRRVSRKIYNATHIATGAITLTTTVVGLIRHRTQIRLIGQKNFGPKETIAGISVGTLGYGALLITGELTQHSINEVKLLIERFLPPWISFIAAVSVITLTTLTLADRVLLRRILHNSAIQAAHLNRMVFPGTEQPWEPERSGSPWSYEKWGAVGSQGRAVLSGGPRKDDIITVTRLSDTETHEPIRIFIGMVPGRSLSDQVDLVIHEMRRTGALRRDHIVINNSTGTGWITDWSAHTFEFLTGGNCVTISMQYSYLPSALSWYKDNDGPINAARMLIDAVLHELDQLPTGSRPKLFLAGESLGAYGLAEVWGDVEKLLGTADGVLLSGAPRFSDAMNALRTRRDASSSERLPVIDSGRHIRFAGEPEHLDMPATWQFPRMIVAQHASDPIVWWNAELFIRRPEWLKTPKQDHQDVFPRLRWMPFVTGWQVALDLFTSTSVPGGHGHNYHEEFIDYWAALLDREVTPELRHSIAYWIRANHIKR”, the protein production result is given as “failed”. Next, “MVSRRGVAGLDFDNRVRSLINTFGLVSVHVQCYFIISDLCLRDSSHQGIFLVSVTRSGCLMVHDFESLYCQSKLGPGSAEDESKHVVHFSYPPGREFDVARWNPSNQNEVACTSRKHDQVLIFDISYMSPKPTEVLQTRQKLSIIGRKISRGLSDVAITSDEDSRIFSPDTLGMVHVWDRRAGVSPCIELSTDRYDSIKSIQIYVDNQTIFGAGKEGIIHIWDLRGGRNSSAFQSRKDVSLTRGELELAMAMSQLPLASLHLAPKLQKIASLKAQSEIVPKEIHSIDVNPSSPHQLAFHLDDGWSGVLDIYKSEVTHVHCPPPAWLDGSNSSADLILRKPSWLPTSSIYVVGSMSEKGIHVLDFHPSSRSPCHVDYDEDTQRNEKRDKCNHRNKFVSLSETVTGCAAHPLNGMIVAGTQNSSLLLIAQMHCSSSSETAEGEL”: “failed”. In the case of “MVSRSPFESFQWKSDIFNCESTDIDNFYLLLEQEMTRLGMVEKNLGEVGKYKVSLYQSPAAKSGLPSLLISAGFHGEESAGPWGLLHFLSEASADLFERVNLSLLPLVNPTGFSRGHRFNKYGENPNRGFVFENGKPKANEHTSVEGKLLLDHAQLLIAACRDGILTCHEDVLSREAYVYSFEPSQVPGRFSLDLRDTLGGYFPIAVDGEIDACPVKDGLIFNHFDTSFEACLVRSGARVGACTETPALQNFDQRVLANSAAMTHFLALCAPLCD”, the protein production result is reported as “not failed”. In the case of “MVSSLLMSFAPATVRVYATSTKGGSGGPKEEKNPIDFVLGFMTKQDQFYETNPLLKKVDEKEGTTTGGRGTVRGGKNSAPTPVPKKSEGGFGGLGSLFKK”, the protein production result is “failed”.

Regarding “MVSSVLPNPTSAECWAALLHDPMTLDMDAVLSDFVRSTGAEPGLARDLLEGKNWDLTAALSDYEQLRQVHTANLPHVFNEGRGPKQPEREPQPGHKVERPCLQRQDDIAQEKRLSRGISHASSAIVSLARSHVASECNNEQFPLEMPIYTFQLPDLSVYSEDFRSFIERDLIEQATMVALEQAGRLNWWSTVCTSCKRLLPLATTGDGNCLLHAASLGMWGFHDRDLVLRKALYTMMRTGAEREALKRRWRWQQTQQNKEEEWEREWTELLKLASSEPRTHFSKNGGTGGGVDNSEDPVYESLEEFHVFVLAHILRRPIVVVADTMLRDSGGEAFAPIPFGGIYLPLEVPPNRCHCSPLVLAYDQAHFSALVSMEQRDQQREQAVIPLTDSEHKLLPLHFAVDPGKDWEWGKDDNDNARLAHLILSLEAKLNLLHSYMNVTWIRIPSETRAPLAQPESPTASAGEDVQSLADSLDSDRDSVCSNSNSNNGKNGKDKEKEKQRKEKDKTRADSVANKLGSFSKTLGIKLKKNMGGLGGLVHGKMGRANSANGKNGDSAERGKEKKAKSRKGSKEESGASASTSPSEKTTPSPTDKAAGASPAEKGGGPRGDAWKYSTDVKLSLNILRAAMQGERKFIFAGLLLTSHRHQFHEEMIGYYLTSAQERFSAEQEQRRRDAATAAAAAAAAAAATAKRPPRRPETEGVPVPERASPGPPTQLVLKLKERPSPGPAAGRAARAAAGGTASPGGGARRASASGPVPGRSPPAPARQSVIHVQASGARDEACAPAVGALRPCATYPQQNRSLSSQSYSPARAAALRTVNTVESLARAVPGALPGAAGTAGAAEHKSQTYTNGFGALRDGLEFADADAPTARSNGECGRGGPGPVQRRCQRENCAFYGRAETEHYCSYCYREELRRRREARGARP”, the protein production result is given as “failed”.

As for “MVTAAQPRSPSPSPSSTAAAGQVTRRVPAVRHLGPNWYACVMGTAIVGTAGAALPGHVAGLRAACTAVWALSLVLLVVLLTARSLHWLHHRDQARAHLLDPSAAPFYGCLSMALLAVGGGALALGRDWIGTPAAVALDTVLFTAGTVIGLAAAVAVPYLMAVRHRVEPGQASPVWLLPLVAPMVSAAVGPLLVPHLPAGQPRETLLLACVAMFGMSLFATLVTLPVVFGRLLTGGPLPLALTPSLFLVLGPLGQSTTAVGKFADVAPGVVPGPYAEGFAVFAVLYGVPVTGFALMWLALAAAHVVRARRAGMRFSMTWWSFTFPVGTCVTGAEALARETGLVVYDGLTVALYALLVAAWAVAAVHTARGLFSGVLLAGPRPAPGAPRPATARTT”, the protein production result was “failed”.
